Source: article PMC8239744, “Mutations in myosin S2 alter cardiac myosin-binding protein-C interaction in hypertrophic cardiomyopathy in a phosphorylation-dependent manner” (The Journal of Biological Chemistry, 2021)
Numbering of substitutions follows the chain as printed. Names and notes keep the numbering of the source.

How the values were obtained:
[1] = biological target: human β-myosin heavy chain, proximal S2 (hS2) proximal S2, 838-963 (UniProt P12883); test: solid-phase binding assay (SPBA); conditions: sites S273,S282,S302
[2] = biological target: human C0-C2 region of cardiac myosin-binding protein-C (hC0-C2) (human) (UniProt Q14896); test: ITC; 350 μM hS2 titrated into 20 μM hC0-C2 (with or without PKA phosphorylation) in PBS at 20 °C; MicroCal VP-ITC; 25 injections of 10 μl at 180 s; four-parameter logistic fit; Kd calculated from the reciprocal of the slope
[3] = biological target: PKA-phosphorylated human C0-C2 (hC0-C2p) (human) (UniProt Q14896); test: solid-phase binding assay (SPBA); 20 μM C0-C2 (bait) adsorbed onto microtiter plates overnight at 4 °C; 0-20 μM recombinant myosin S2 (prey) added; bound S2 detected with polyclonal anti-S2 antibody and Alexa Fluor 568 secondary antibody; intensity normalised to that at maximal S2; one-phase association fit for Bmax and Kd
[4] = biological target: human C0-C2 region of cardiac myosin-binding protein-C (hC0-C2) (human) (UniProt Q14896); test: as above
[5] = biological target: mouse recombinant C0-C2 protein, phospho-ablated (mC0-C2^AAA) (mouse) (UniProt O70468); test: as above
[6] = biological target: mouse recombinant C0-C2 protein, phospho-mimetic (mC0-C2^DDD) (mouse) (UniProt O70468); test: as above
[7] = biological target: mouse recombinant C0-C2 protein, WT (mC0-C2^Wt) (mouse, UniProt O70468 1-448); test: as above; conditions: both partners purified
[8] = biological target: PKA-phosphorylated human C0-C2 (hC0-C2p) (human) (UniProt Q14896); test: ITC; 350 μM hS2 titrated into 20 μM hC0-C2 (with or without PKA phosphorylation) in PBS at 20 °C; MicroCal VP-ITC; 25 injections of 10 μl at 180 s; four-parameter logistic fit; Kd calculated from the reciprocal of the slope

Chain of mouse recombinant C0-C2 protein, WT (mC0-C2^Wt) (O70468 1-448): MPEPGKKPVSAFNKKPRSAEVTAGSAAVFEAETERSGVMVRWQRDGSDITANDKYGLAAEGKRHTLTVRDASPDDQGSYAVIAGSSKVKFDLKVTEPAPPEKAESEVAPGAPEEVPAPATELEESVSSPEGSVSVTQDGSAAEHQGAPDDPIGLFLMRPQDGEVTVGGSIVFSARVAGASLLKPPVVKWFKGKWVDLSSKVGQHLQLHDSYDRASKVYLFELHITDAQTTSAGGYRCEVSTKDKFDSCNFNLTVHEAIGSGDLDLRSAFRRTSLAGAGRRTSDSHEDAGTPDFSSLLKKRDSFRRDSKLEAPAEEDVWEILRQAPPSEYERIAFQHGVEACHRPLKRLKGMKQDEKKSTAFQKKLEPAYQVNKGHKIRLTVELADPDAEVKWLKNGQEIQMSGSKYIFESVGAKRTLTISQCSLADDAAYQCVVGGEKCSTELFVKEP
Chain of mouse recombinant C0-C2 protein, phospho-ablated (mC0-C2^AAA) (mouse) (O70468 other isoform, or with tags, fused parts or gaps): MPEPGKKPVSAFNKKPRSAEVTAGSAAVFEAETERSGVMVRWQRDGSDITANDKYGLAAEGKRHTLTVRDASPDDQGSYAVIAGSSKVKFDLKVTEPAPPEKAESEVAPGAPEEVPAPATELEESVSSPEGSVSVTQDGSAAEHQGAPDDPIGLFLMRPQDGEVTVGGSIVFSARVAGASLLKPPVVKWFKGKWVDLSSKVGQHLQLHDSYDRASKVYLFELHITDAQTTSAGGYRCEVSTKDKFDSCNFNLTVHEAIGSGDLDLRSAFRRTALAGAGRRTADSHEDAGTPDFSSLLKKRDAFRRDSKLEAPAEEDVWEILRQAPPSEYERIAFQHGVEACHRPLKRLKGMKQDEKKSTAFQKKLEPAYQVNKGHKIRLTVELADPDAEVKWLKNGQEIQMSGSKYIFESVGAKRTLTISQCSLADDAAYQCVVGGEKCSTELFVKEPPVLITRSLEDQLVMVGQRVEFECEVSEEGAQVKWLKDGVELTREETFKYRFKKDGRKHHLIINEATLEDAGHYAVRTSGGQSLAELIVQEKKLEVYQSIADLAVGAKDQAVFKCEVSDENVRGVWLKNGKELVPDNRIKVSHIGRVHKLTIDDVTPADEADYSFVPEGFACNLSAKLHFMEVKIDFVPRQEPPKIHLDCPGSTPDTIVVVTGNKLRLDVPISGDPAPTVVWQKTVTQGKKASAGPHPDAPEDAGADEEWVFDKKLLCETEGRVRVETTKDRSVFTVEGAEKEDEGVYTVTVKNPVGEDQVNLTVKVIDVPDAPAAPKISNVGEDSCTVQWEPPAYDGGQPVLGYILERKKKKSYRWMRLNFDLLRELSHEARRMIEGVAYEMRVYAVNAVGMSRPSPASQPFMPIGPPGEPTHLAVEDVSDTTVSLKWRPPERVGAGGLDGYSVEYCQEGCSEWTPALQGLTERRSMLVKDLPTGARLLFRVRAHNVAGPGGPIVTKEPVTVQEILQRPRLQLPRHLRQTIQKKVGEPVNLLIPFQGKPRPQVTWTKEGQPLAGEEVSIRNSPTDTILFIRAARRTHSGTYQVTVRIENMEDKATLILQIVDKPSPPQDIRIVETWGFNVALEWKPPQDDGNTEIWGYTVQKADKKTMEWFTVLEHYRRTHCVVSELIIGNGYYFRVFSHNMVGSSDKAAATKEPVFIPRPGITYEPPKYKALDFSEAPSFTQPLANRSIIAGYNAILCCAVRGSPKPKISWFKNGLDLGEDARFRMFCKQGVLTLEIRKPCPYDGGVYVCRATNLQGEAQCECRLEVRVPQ
Chain of mouse recombinant C0-C2 protein, phospho-mimetic (mC0-C2^DDD) (mouse) (O70468 other isoform, or with tags, fused parts or gaps): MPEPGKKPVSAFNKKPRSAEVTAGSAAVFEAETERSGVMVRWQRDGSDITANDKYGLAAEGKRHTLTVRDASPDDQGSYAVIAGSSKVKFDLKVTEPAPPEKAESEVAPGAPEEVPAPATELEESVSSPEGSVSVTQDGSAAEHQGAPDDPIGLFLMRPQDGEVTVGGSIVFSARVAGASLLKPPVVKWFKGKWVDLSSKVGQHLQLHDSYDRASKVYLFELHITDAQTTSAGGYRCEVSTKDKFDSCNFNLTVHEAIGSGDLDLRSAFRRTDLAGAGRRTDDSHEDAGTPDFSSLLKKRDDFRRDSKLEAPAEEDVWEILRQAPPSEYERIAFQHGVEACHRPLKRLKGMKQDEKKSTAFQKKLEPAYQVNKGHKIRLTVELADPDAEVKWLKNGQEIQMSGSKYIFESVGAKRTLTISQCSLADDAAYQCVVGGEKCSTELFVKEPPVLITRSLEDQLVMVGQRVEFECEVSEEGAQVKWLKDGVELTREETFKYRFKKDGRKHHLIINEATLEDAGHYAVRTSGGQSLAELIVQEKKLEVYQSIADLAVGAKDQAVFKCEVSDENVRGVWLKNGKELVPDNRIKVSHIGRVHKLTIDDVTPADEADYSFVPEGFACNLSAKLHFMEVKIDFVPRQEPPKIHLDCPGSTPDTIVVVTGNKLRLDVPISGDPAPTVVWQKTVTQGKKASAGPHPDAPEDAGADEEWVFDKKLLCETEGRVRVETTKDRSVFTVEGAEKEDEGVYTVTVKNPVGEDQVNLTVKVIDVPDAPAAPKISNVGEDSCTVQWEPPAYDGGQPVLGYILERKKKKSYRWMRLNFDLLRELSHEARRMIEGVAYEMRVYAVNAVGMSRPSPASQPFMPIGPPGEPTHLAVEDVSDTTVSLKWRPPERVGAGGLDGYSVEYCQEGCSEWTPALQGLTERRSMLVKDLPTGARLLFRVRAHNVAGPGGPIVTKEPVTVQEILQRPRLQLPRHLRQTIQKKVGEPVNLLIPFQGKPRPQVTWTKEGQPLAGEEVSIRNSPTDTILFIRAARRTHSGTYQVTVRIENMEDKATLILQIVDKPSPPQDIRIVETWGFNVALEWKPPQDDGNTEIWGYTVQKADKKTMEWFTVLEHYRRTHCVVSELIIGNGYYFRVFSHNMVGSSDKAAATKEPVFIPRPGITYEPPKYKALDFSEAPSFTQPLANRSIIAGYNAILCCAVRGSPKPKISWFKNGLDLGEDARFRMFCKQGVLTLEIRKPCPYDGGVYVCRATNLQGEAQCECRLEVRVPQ

“mouse cardiac myosin-binding protein-C (cMyBP-C), mC0-C2 C0-C2 (from UniProt O70468) mC0-C2 DDD” was tested, and the “other: Bmax” value ([1]; reference: mC0-C2 AAA) was “weaker; reference 0.95 ± 0.04” and the “other: Bmax” value ([1]; reference: mC0-C2 wild type) was “weaker; reference 1.02 ± 0.04”.

B1: human recombinant proximal S2 WT protein (hS2^Wt) (domain or fragment, UniProt P12883 838-963, looked up)
chain: PLLKSAEREKEMASMKEEFTRLKEALEKSEARRKELEEKMVSLLQEKNDLQLQVQAEQDNLADAEERCDQLIKNKIQLEAKVKEMNERLEDEEEMNAELTAKKRKLEDECSELKRDIDDLELTLAK
notes: pET28a+ vector; also called WT hS2; human cardiac myosin S2
B1 showed a Kd [2] of 4710 nM, a stoichiometry N [2] of 1.08 and a Kd [3] of 7350 nM. It also gave a stoichiometry (η) based on Bmax, hC0-C2p to hS2^Wt compared with hC0-C2 to hS2^WT [3] of 1.26, a Kd [4] of 5040 nM and a Kd [5] of 1810 nM. The Kd [6] was 2020 nM and the Kd [7] was 1890 nM.

B2: human recombinant proximal S2 protein with E924K mutation (hS2^E924K) (domain or fragment, UniProt P12883 838-963, looked up)
chain: B1 chain with E87K
notes: human β-myosin heavy chain (MYH7), proximal S2, residues 838-963, with the HCM-causing mutation E924K; mutation found in HCM patients, introduced by site-directed mutagenesis; coiled coil in low-salt buffer by CD
With B2 the Kd [8] was 16500 nM, the stoichiometry N [8] was 2.57 and the Kd [2] was 30500 nM. The Kd [3] was 830 nM, the stoichiometry (η) based on Bmax, hC0-C2p to hS2 mutant [3] was 1.21 and the Kd [4] was 4300 nM. The stoichiometry (η) based on Bmax, hC0-C2 to hS2 mutant compared with hS2^WT [4] was 1.21, the Kd [5] was 1480 nM and the Kd [6] was 740 nM. It also gave a Kd [7] of 1510 nM.

B3: human recombinant proximal S2 protein with R870H mutation (hS2^R870H) (domain or fragment, UniProt P12883 838-963, looked up)
chain: B1 chain with R33H
notes: human β-myosin heavy chain (MYH7), proximal S2, residues 838-963, with the HCM-causing mutation R870H; mutation found in HCM patients, introduced by site-directed mutagenesis; coiled coil in low-salt buffer by CD
In the case of B3, the Kd [8] is reported as 11000 nM, the stoichiometry N [8] is reported as 1.07 and the Kd [2] is reported as 19000 nM. It also gave a stoichiometry N [2] of 2.53, a Kd [3] of 1260 nM and a stoichiometry (η) based on Bmax, hC0-C2p to hS2 mutant [3] of 1.17. For the same molecule, the Kd [4] was 6290 nM, the stoichiometry (η) based on Bmax, hC0-C2 to hS2 mutant compared with hS2^WT [4] was 1.24 and the Kd [5] was 1510 nM. The Kd [6] was 790 nM and the Kd [7] was 1640 nM.

B4: human recombinant proximal S2 protein with E930Δ mutation (hS2^E930Δ) (domain or fragment, UniProt P12883 838-963, looked up)
chain: PLLKSAEREKEMASMKEEFTRLKEALEKSEARRKELEEKMVSLLQEKNDLQLQVQAEQDNLADAEERCDQLIKNKIQLEAKVKEMNERLEDEEMNAELTAKKRKLEDECSELKRDIDDLELTLAK
notes: human β-myosin heavy chain (MYH7), proximal S2, residues 838-963, with the HCM-causing deletion of E930; mutation found in HCM patients, introduced by site-directed mutagenesis; coiled coil in low-salt buffer by CD
B4 was tested, and the Kd [8] was 8570 nM, the stoichiometry N [8] was 0.35 and the Kd [2] was 42300 nM. For the same molecule, the Kd [3] was 970 nM, the stoichiometry (η) based on Bmax, hC0-C2p to hS2 mutant [3] was 1.24 and the Kd [4] was 6670 nM. For the same molecule, the stoichiometry (η) based on Bmax, hC0-C2 to hS2 mutant compared with hS2^WT [4] was 1.23, the Kd [5] was 1220 nM and the Kd [6] was 880 nM. For the same molecule, the Kd [7] was 1320 nM.
